# Values quoted from earlier work in publication PMC6435036 (Molecular pharmaceutics, 2017).
# Conditions: in humans
substance,measurement,value
"ApoA-I: endogenous apolipoprotein A-I, main protein of HDL",half-life of endogenous ApoA-I protein,79.2 h
